Measured values from patent publication US20130296247A1.

What was measured:
Experiment in all cases: cell-based or functional assay
[1] = target: Nav1.2 sodium channel (rBIIa) (UniProt P04775)
[2] = target: human Nav1.7 sodium channel alpha subunit (human) (UniProt Q15858)
[3] = target: Nav1.2 sodium channel (rBIIa), P04775

Chain of human Nav1.7 sodium channel alpha subunit (human) (Q15858 whole entry): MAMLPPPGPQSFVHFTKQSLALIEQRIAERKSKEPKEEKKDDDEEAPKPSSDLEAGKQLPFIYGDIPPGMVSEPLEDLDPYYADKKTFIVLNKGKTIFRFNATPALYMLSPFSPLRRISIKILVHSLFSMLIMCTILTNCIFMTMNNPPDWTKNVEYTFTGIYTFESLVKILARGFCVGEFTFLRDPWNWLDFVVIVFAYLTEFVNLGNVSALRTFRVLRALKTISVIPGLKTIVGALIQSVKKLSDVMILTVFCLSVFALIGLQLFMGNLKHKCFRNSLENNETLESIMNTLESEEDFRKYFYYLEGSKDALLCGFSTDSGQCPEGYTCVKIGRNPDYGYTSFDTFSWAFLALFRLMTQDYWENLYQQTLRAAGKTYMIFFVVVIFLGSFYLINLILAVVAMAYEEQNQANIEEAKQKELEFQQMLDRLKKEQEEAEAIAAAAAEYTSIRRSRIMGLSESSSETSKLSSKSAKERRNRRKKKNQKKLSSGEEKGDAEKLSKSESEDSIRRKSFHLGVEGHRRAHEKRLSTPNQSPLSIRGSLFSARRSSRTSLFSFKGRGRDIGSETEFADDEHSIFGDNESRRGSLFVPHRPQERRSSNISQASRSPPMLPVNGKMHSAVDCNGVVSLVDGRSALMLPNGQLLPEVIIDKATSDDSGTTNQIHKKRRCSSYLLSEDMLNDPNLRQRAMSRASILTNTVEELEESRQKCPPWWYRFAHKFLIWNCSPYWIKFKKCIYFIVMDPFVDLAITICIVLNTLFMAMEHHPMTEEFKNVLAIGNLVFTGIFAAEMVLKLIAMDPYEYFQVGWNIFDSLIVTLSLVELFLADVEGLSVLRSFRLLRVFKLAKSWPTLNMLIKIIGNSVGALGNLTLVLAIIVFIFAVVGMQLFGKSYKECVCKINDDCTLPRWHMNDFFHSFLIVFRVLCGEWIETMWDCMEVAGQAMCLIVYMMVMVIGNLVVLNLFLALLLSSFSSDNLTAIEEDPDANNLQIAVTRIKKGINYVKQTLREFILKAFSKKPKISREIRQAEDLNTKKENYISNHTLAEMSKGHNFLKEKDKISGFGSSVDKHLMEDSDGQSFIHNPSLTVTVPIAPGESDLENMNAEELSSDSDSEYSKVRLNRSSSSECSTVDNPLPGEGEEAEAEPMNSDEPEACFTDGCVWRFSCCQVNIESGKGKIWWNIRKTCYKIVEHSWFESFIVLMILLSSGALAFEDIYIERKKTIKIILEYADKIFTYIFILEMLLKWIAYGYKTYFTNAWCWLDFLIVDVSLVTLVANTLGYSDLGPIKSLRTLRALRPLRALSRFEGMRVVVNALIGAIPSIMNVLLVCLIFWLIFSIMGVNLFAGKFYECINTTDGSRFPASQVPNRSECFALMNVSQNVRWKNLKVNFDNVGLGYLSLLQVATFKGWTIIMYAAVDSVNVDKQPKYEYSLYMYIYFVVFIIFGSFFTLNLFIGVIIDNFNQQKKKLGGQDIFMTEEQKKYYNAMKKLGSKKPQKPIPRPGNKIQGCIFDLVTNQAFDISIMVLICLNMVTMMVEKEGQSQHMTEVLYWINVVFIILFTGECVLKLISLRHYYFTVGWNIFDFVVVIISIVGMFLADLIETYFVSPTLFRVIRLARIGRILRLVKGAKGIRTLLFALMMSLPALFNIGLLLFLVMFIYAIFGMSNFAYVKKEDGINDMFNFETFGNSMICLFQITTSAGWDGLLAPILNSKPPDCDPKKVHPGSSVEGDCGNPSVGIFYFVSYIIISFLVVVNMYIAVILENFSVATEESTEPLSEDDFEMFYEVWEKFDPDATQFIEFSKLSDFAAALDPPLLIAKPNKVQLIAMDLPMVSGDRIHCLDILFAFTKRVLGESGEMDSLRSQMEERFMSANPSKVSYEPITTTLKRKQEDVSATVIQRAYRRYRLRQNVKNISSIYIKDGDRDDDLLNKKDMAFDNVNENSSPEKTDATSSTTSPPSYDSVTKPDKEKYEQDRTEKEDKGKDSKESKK

| Molecule | IC50 Nav1.2 [1] [nM] | IC50 Nav1.7 [2] [nM] | IC50 Nav1.2 [3] [nM] |
| --- | --- | --- | --- |
| Phrixotoxin I (peptide) | 5000 | – | – |
| VsTx II (peptide) | 42400 | 9260 | – |
| GsAF II (peptide) | 410 | 70 | – |
| GrTx I (peptide) | 2690 | 1010 | – |
| GsAF I (peptide) | 255 | 249 | – |
| JzTx V (peptide) | 157 | 14 | – |
| JzTx XII (peptide) | 73900 | – | – |
| GsMTx II/PaTX II (peptide) | 2700 | 260 | – |
| YCQKWMWTCDSERKCCEGMVCRLWCKKKLW (modifications not checked) [peptide of SEQ ID NO: 2] | – | – | 8 |
